# Data: patent US20180221438A1, “MODULATING URACIL-DNA GLYCOSYLASE AND USES THEREOF” (Adaerata Limited Partnership, priority 2015, published 2018)
# Assays:
# human DLBCL cell lines = assay: Growth curves of human DLBCL cell lines; assay type: cell-based; settings: DLBCL AID+ (Ocy-Ly3, Ocy-Ly10) and AID− (Ocy-Ly7, Ocy-Ly8) lines expressing Ugi
# Procedure: Stable shRNA-mediated knockdowns were generated in CH12F3-2 cells following protocols from the RNAi Consortium (TRC). Transfected cells were selected with puromycin at 1 μg/ml final concentration. For double knockdowns, CH12F3-2 cells were first transfected with a pLKO.1 neomycin version of the shRNA (shAID or shGFP) and selected, then transduced with the second shRNA and selected again with puromycin before analysis. CH12F3 Ugi cells transduced with pMIG-Ugi-IRES-GFP were generated as described ^39, and human lymphoma Ugi cells were generated by retroviral delivery using a pLPC-PURO system (pLPC-Ugi-PURO) and transduced cells were selected with 1 ug/m1 of puromycin. The Ugi protein from bacteriophage PBS2 and its ability to inhibit eukaryotic UNG have been described ^69,31.
# The inventors therefore stratified human DLBCL cell lines on the basis of their AID protein levels into high (DLBCL AID^+) (Ocy-Ly3 and Ocy-Ly10 in FIG. 13A) or low expressing (DLBCL AID^−) lines (Ocy-Ly7 and Ocy-Ly8 in FIG. 13A) and established derivatives expressing Ugi for each one.
# CH12F3 cells [1] = assay: FISH of metaphase chromosomes for sister telomere loss (STL) in CH12F3 cells; assay type: cell-based, mouse
# Procedure: (§1) B cell lymphoma cells, CH12F3-2 cells, were cultured in RPMI medium supplemented with 10% FBS, 0.05% 2- mercaptoethanol and 5% NCTC 109 (Sigma). CH12F3-2 cells stably expressing Ugi were obtained by retroviral delivery using pMIG vector as described before ^39. Class switching induction to IgA in CH12F3-2 cells was performed as previously published ^39. CSR to IgA in CH12F3-2 cells was determined with an Accuri C6™ Flow Cytometer (BD Biosciences). Mouse B cells were purified from freshly isolated splenocytes using anti-CD43 magnetic beads as described ^70. CSR was induced using 5 ? g/ml LPS (Sigma) and 20 ng/ml IL-4 (Preprotech). Cells were harvested for ChIP or metaphase spreads and FISH at 24 h post stimulation.
# For metaphase analysis cells were incubated with 50 ng/ml colcemide in cell culture media for 3 hours, harvested by trypsinization, incubated for 10 min at RT in 75 mM KCl, and fixed in freshly prepared methanol:glacial acetic acid (3:1 v/v). Cells were stored at 4° C. and when needed dropped onto wet slides and air-dried. For FISH analysis of the metaphases the cells were pre-treated with 0.05% w/v pepsin in 10 mM HCl during 10 minutes at 37° C. […] Finally, the samples were analyzed as described above. […]
# CH12F3 cells [2] = assay: Terminal restriction fragment (TRF) analysis of telomeric DNA in CH12F3 cells; assay type: cell-based, mouse; settings: CH12F3 Ugi cells
# DLBCL cells = assay: Metaphases with STL in DLBCL lines; assay type: cell-based, human; settings: DLBCL lines expressing GFP or Ugi, and AID or shAID
# Procedure: For metaphase analysis cells were incubated with 50 ng/ml colcemide in cell culture media for 3 hours, harvested by trypsinization, incubated for 10 min at RT in 75 mM KCl, and fixed in freshly prepared methanol:glacial acetic acid (3:1 v/v). Cells were stored at 4° C. and when needed dropped onto wet slides and air-dried. For FISH analysis of the metaphases the cells were pre-treated with 0.05% w/v pepsin in 10 mM HCl during 10 minutes at 37° C. After washes with 1X PBS, cells were fixed with 1% formaldehyde in 1X PBS during 10 minutes at RT, washed again with 1X PBS and dehydrated with ethanol series (70-90-100%, 2 min each at RT) and air-dried ON. Then, cells were denatured with hybridization solution (70% deionized formamide; 2.5% 50× Denhardt solution; 10 mM Tris pH 7.5; 1.5 mM MgCl2) containing Alexa488-conjugated PNA probe (Alexa488-OO-(CCCTAA)3) 2 min at 80° C. on a heat block. After 4 hours incubation at RT in the dark, the samples were washed twice with wash solution (70% deionized formamide and 10 mM Tris-HCl [pH 7.2]) at RT and then twice with PBS. For DAPI staining of DNA, slides with metaphase spreads were incubated 10 min in 0.5 ? g/ml 4′, 6-diamino-2-phenylindole (DAPI) (Sigma) in PBS, washed with PBS for 2 min, and mounted in SlowFade™ Gold antifade mounting reagent (Life Technologies). Finally, the samples were analyzed as described above. […]
# E. coli UNG = E. coli UNG (Escherichia coli, UniProt P12295); settings: cited from earlier work
# Sequence of E. coli UNG (P12295 whole entry): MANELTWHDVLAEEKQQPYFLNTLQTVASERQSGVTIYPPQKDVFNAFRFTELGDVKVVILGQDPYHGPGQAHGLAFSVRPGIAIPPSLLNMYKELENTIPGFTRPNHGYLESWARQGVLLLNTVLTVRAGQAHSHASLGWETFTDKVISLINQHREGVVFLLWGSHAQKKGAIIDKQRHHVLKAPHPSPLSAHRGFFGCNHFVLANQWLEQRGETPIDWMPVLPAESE
# CH12F3 cells [3] = assay: Proliferation of CH12F3 cells after CSR stimulation (cell number, CFSE dilution); assay type: cell-based, mouse; settings: CH12F3 Ugi cells stimulated for CSR; prevented by AID knockdown
# Procedure: as §1
# CH12F3 cells [4] = assay: Anaphase bridges by DAPI staining in CH12F3 cells expressing E6 and E7; assay type: cell-based, mouse; settings: CH12F3 Ugi with E6 and E7, vs CH12F3 Ugi shAID and control GFP cells
# Description: Anaphase cells were visualized by DAPI staining of cells fixed with 2% paraformaldehyde in 1X PBS and attached to slides pre-treated with poly-lysine and analyzed as described previously ^33.
# CH12F3-2 cells = assay: Cloning efficiency of single CH12F3-2 cells; assay type: cell-based, mouse; settings: 14 days after single-cell dilution with cytokines to induce CSR to IgA, vs CH12F3-2 GFP
# Description: B cells must expand clonally while expressing AID during the GC reaction. Based on the results described above the inventors asked whether UNG deficiency might limit the proliferation capacity of transformed B-cells expressing AID. To assess the effect of UNG deletion on the proliferation of B-cells expressing AID, the inventors immunized WT and UNG-null mice with a T-dependent antigen to stimulate germinal center (GC) B-cell expansion and AID expression in vivo. The inventors used an AID-GFPtg reporter mouse that allows identifying AID+ GC B-cells in response to immunization ^6,28. […] This reduction was explained by the ˜3-fold smaller average GC size in Ung^−/− versus Ung^+/+ AID-GFPtg mice, rather than any difference in the number of GC (FIGS. 10C-D). […] However, it must be noted that at variance with immunization, which stimulates a few B-cells that need to undergo clonal expansion to form the GC, stimulation in vitro with cytokines causes massive proliferation accompanied by a high level of spontaneous cell death, which likely obscures the additional increase due to UNG-deficiency (not shown). To address this limitation, the inventors evaluated the cloning efficiency of single B-cells. […]
molecule,measurement,setting,value
"Ugi: Uracil Glycosylase Inhibitor of Bacillus subtilis bacteriophage PBS1/PBS2, small protein (9.5 kDa), SEQ ID NO: 29; expressed in cells by retroviral delivery (protein, bacillus subtilis, expressed in cells by retroviral delivery) MTNLSDIIEKETGKQLVIQESILMLPEEVEEVIGNKPESDILVHTAYDESTDENVMLLTSDAPEYKPWALVIQDSNGENKIKML",growth of DLBCL cells,human DLBCL cell lines,only impaired the growth of DLBCL AID+ cells
same,STL,"CH12F3 cells [1]; CH12F3 Ugi cells expressing human AID, without inducing class switching, vs CH12F3 GFP",significant increase in STL
same,metaphase chromosomes with STL,CH12F3 cells [1]; activated CH12F3 cells expressing Ugi vs CH12F3 cells expressing GFP alone,significant increase in metaphase chromosomes with STL
same,intra-telomeric G-rich single-stranded DNA,CH12F3 cells [2]; DNA treated with exonuclease before TRF analysis,MSH2-dependent increase in intra-telomeric G-rich single-stranded DNA
same,telomere G-rich 3′ overhang signal,CH12F3 cells [2]; terminal restriction fragment analysis,normal telomere G-rich 3′ overhang signal
same,number of metaphases with STL,DLBCL cells,significant increase in the number of metaphases with STL only when DLBCL cells expressed AID and Ugi but not with Ugi alone
same,inhibition of UNG,E. coli UNG,inhibits E. coli UNG as well as UNG from other species
same,growth (total cell number or CFSE dilution assay),CH12F3 cells [3],reduced growth
same,anaphase bridges,CH12F3 cells [4],significantly accumulated anaphase bridges
same,cloning capacity,CH12F3-2 cells,significant decrease in the cloning capacity
